We go through one molecule from publication PMC6828549 (Nature structural & molecular biology, 2019).

This experiment addresses T1, His6-Nxf2 (full length), recombinant from insect cells (Drosophila melanogaster, UniProt Q9VV73 1-841).
T1 sequence: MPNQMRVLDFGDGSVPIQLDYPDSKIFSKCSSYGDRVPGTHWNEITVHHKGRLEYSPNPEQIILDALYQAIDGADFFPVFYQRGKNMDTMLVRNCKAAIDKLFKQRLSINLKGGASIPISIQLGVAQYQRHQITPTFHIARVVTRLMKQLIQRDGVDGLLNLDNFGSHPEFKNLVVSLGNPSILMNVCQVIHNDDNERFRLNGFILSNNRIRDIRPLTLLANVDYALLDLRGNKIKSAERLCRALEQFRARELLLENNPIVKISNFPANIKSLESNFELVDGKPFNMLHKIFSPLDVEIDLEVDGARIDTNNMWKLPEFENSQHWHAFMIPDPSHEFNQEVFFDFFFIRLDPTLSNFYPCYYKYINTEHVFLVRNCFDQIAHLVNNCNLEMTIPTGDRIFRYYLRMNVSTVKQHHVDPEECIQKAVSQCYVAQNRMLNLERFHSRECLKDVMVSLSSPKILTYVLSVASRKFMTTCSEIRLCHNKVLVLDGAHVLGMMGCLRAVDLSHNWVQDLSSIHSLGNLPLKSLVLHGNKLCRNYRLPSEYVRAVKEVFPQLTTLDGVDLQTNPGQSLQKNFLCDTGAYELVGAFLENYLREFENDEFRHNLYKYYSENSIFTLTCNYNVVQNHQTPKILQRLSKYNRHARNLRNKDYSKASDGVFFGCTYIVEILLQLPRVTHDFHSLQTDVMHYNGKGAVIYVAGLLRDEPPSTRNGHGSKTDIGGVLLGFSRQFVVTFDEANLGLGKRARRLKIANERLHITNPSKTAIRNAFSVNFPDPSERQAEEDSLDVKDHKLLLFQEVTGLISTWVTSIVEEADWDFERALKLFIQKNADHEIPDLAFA
Briefly: pull-down + SEC.

B1: Strep-tagged Panoramix fragment (263–446) (domain or fragment)
chain: ASSQNESSKERKLRDTELDYVPVRPDEHFIRPIKFSNLIERRPPQVEFNTVNLSKADKRSLAVARAELVLEQIQQKANKEEPPEFHMVDTICKLPVNESFRNQDCFENPSPICNNMNVVYKFNSTPGTRIDLSKWGLETVPEATKRLLRLLGIDVARLKELQSTVKPSQRILKLKKEQLEQGLA
Consider B1, for which the binding result is listed as “binds”.
